In paper PMC9536601 (2022):

Target: T1, Ad6 hexon, on wild-type human adenovirus type 6 virions (human adenovirus type 6)
T1 chain: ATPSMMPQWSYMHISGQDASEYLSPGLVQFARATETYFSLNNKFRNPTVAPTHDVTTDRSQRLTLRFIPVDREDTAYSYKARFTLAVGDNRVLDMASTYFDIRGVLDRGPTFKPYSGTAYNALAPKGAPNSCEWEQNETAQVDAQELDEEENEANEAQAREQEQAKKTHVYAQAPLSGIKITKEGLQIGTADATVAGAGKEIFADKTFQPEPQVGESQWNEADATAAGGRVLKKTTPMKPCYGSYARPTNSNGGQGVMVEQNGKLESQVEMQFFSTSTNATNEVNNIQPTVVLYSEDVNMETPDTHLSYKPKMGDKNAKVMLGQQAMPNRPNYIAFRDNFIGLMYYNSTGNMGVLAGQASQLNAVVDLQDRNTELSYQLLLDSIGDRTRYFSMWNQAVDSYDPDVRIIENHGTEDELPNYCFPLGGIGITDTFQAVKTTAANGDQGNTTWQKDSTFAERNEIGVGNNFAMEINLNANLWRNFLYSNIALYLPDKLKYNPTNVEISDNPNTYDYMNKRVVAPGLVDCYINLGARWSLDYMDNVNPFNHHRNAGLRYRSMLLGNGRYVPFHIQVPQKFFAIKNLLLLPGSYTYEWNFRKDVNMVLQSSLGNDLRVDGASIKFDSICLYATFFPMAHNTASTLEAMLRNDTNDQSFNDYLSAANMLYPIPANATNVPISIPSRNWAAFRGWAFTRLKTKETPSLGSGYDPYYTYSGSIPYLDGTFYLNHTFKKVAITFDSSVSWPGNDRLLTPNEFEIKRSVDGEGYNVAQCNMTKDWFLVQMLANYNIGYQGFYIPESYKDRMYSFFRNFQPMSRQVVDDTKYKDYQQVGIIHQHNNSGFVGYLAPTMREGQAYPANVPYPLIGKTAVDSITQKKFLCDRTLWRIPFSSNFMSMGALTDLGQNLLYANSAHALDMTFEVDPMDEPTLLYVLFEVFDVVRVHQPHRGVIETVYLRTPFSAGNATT
Experiment: SPR

B1: mouse coagulation factor X (natural protein)
chain 1: ANSFFEEFKKGNLERECMEEICSYEEVREIFEDDEKTKEYWTKYKDGDQCESSPCQNQGACRDGIGGYTCTCSEGFEGKNCELFVRKLCRLDNGDCDQFCREEQNSVVCSCASGYFLGNDGKSCISTAPFPCGKITTGRR
chain 2: VALNTSDSELDLEDALLDEDFLSPTENPIELLNLNETQPERSSDDLVRIVGGRECKDGECPWQALLINEDNEGFCGGTILNEFYILTAAHCLHQARRFKVRVGDRNTEKEEGNEMVHEVDVVIKHNKFQRDTYDYDIAVLRLKTPITFRMNVAPACLPQKDWAESTLMTQKTGIVSGFGRTHEKGRQSNILKMLEVPYVDRNTCKLSTSFSITQNMFCAGYEAKLEDACQGDSGGPHVTRFKNTYYVTGIVSWGEGCARKGKYGIYTKVTTFLKWIDRSMKARVGPTAETPRTAGPPN
modifications: gamma-carboxylated glutamate residues in the Gla domain
Work on B1 yielded a Kd of 0.42 nM.
